Laboratory results: the DeepSol protein solubility set

Assay: soluble on expression in E. coli; label from the status in PepcDB or PDB records

| Sequence | soluble on expression in E. coli |
| --- | --- |
| PQEKLKLLAFTGTKGKTTAAYFAYHMLKESYKPAMFSTMNTTLDGKTFFKSQLTTPESLDLFAMMAECVTNGMTHLIMEVSSQAYLVDRVYGLTFDVGVFLNISPDHIGPIEHPTFEDYFYHKRLLMENSRAVVINSGMDHFSFLADQVADQEHVFYGPLSDNQITTSQAFSFEAKGQLAGHYDIQLIGHFNQENAMAAGLACLRLGASLADIQKGIAKTRVPGR | not soluble |
| MGSDKIHHHHHHLDLAPEDYYGAGNFWKEASQPKAFMLGLHAQLRSYYDMFYTLGELRGGTQRVGTSSLNTSLNYADIRSQNISEDIPGISNWNGLYSPIMQVNHFIQEVENGCTFLDDATRSRYLGQAYGMRALYYFMLYRTFGGVPLITKVDILDGKPSADKFYVERATPEATMEFIKADINKSENYFGNNTSFDAYDWSRYATLMLKAEIYMWAAKVSITGFTATGATDLQTAKTALSGIIGHFELMDNFASIFSCDNKKNTEIIFAMPFIEGEASNDGGRFLYQDAVFLGQAYGRNGKVIEKDTLNLKGTGGVFRDEYTEDFWKTFKEGDSRRDATFMEYYMKNDNGTLSEFGCVMKKRIGTINSNDNRIYISDIPVYRYADALLMMAEIENGLNNPCASYINEVRKRAYGDTFEENKYTEGSYAENELAILQERDKEFVSEGKRWFDVLRMHDASGRSLVFSANANYPGTNPILGTEEAYKMLWPVNIGTLNVNPLLTQTPGYGKK | not soluble |
| MPTVPFPILRLPNAILQRSLQQMSPIGLISLSVLSNNMKQIVTMPNNKSRFDGRISTTLPITLHLNVDRNSRHHYVEYAFQFNQSVLRIQDIRGQEPATLTKPGFTDKLWIEHVAEVLFQNKGVILSCDAPFRTYIKELLKNINVTLIAIRSSGFEVWKFFELFPSLEKVTFTEGPIPLSVLSRNLDGLKVNTKDVPLDDALTSNSLSFAMHRNSFTMKEINLFIKQWIRGCNPRLEMFQILFNDIERHLVLENVIFKGINYIEKRNRIVQCQEREEYRIERFDGTEALVWFNPNRFPFLEMTVMMNDDDDKLLV | not soluble |
| MTMHETTDRLFEIAKEQGVLKPADIAERLNISQQALKNWESRGIAAKALPEVAKAFGVSETWLRTGEGSRTAPVLIDPDLPHEVKDIHRPMTWSSNDPLPDDDYVFVPYLKESCFKGGVGTYEIPDYNGYRLPFGKSTLKRKGINPDNVFCCTLTGDSMEEKIAEDAAIAVDTGETAIRDGKIYAFAQDGMFRVKYLIRQPGNSVLIRSHNSGFYGDENAPLDSLTVIGRVFWWSVLD | not soluble |
| MGSDKIHHHHHHMEANDLLTLGLGLTAPWRVVDQSLDLSKQPSELRLEVEAARGERYPCPACGALCKAHDFAEFSWRHLNFFQHHCLIKARVPRVRCPEHGLKRVNVPWARPGSGFTLLFEQAVMLLAREMPVNAVARYVGVTDKRIWRVVTHYVLKGMGKLDLSRLCGIGLDETATKRGHHYVTIFVDMDRESRPVVFATPGKGKECLKTFAAYLKGRQGNPENVVEVVCDMSPAFLSAAEATFRNAAVTVDWFHVVQIFTKALDEVRRLEAREVILPKAARWAVLKGLETWRIEEQVAALKELEERGLATATAFRVKELLRWVRKADTRQGARWRATRFFEFARELAGDSVLLAPVRKALNTFEDHLPRILRRWDSLLSNARLEGLNGLFQAARSRARGYRNVTTFITMIYLIGAPITQLLEA | not soluble |
| MSLKKIILSIILISNYCYASDCFEITGKAYNIDPLILKAIAWNESKCKSGIKSKTNKNGTYDIGIMQINSSHLDLLSKFNISEDDLLNDACINISVAGYILASNIKSRGNTWDAVGAYNAGYFNTPNAVELRRQYAMKIYKTYNKLKNNEQIIDEGHHHHHH | not soluble |
| GAKPERGRFLHFHSVTFWVGNAKQAASFYCSKMGFEPLAYRGLETGSREVVSHVIKQGKIVFVLSSALNPWNKEMGDHLVKHGDGVKDIAFEVEDCDYIVQKARERGAKIMREPWVEQDKFGKVKFAVLQTYGDTTHTLVEKMNYIGQFLPGYEAPAFMDPLLPKLPKCSLEMIDHIVGNQPDQEMVSASEWYLKNLQFHRFWSVDDTQVHTEYSSLRSIVVANYEESIKMPINEPAPGKKKSQIQEYVDYNGGAGVQHIALKTEDIITAIRHLRERGLEFLSVPSTYYKQLREKLKTAKIKVKENIDALEELKILVDYDEKGYLLQIFTKPVQDRPTLFLEVIQRHNHQGFGAGNFNSLFKAFEEEQNLRGNLTNMETNGVVPGMAENLYFQ | soluble |
| MGSDKIHHHHHHMHGNADVKFGNESVFDLARGSSTNDELLNICMIRSGFKKFEEEKEIQNTDGFFIADTSVYIKLGNRLGYLTKDRLLASKSVYNELSERTKLTQMGKEIIVFYLGMYSYRHLHKSPPVSEYNKSGDIPLIEETRKIKENIPEKVTLITADRQLKQRARTLGVNVIFLNTLKSDSGNMSELLLCASNRREYMEKYDYARRDLTITINDKEVIKIESDPTKEGFSRIKTLNKEFNYAKLIEKLYEMI | not soluble |
| MTQEEMKHIDPSGNHTISHLCEAWKLSMRYQVKPSTFACYATIIQKHIRPSIGTVEMEEMNNEILSEFILDRQSRGLSANTMRLILFLLKSIIRAGERRGICPAEPLDFFLPKDRGYEMKLLSQDNRRKLLSWLAGCRTNFELGLLLSLSTGIRVGELCGMKWEDVDLEEGVLHIRRTVSRIRNTDQKNTAAKTVLYIGSPKTGTSQREIPLPDFMIPRLKEKKREAGCYLLTGRTGCMEPRGVQRRFKN | not soluble |
| GDIVAVHPIRRGTAEAIEVVAHGDKKTSAIIGRRISGIKWPEGCHIAAVVRAGTGETIMGHHTETVIQDGDHIIFFVSRRRILNELEKLIQVKMGFFG | not soluble |
| GPGSMKKNLLADRTARVFEEARESATRLAAVSDTVSRAAVPHGIRHLFYTADTQREQRQCLAKVFAATCPSLHPLRSGEGEAGDGESSDPTSAAAAAHQDYILLILPDCAKVEDFISHVLLPGQADALRILGSQDDARCTDYLVERLDHTVQVQQQQRRRAETRKFIQRTVRKAEALDGDVGYPSSAPQPSPLFRRLEREVNATAAPIHAAASESQAPAPTSLATSPAVCAADSLTASSSPLRPPRRCFITCNCNNVRGLDLPHLTHVVILAQPTTALEYAHWCGRVGRFGRPGVSVTLMARSATRHMHQFCDSLGIAFRVEKRHAEVDVNAERWLSGADAE | soluble |
| MTDPSQMQAEELLSFLEEGGTLKMLHDVSADTIEHIYAVGYNFFQSGKIEQAAKVFQLLSMLDHYQARFFIGLGAARQELGEYLQAIDAYSYAALVDINDPRPPFHSAECHLKLEQLTEAESGFYSAKEMSAGKSQYADLHQRAGIMLEAVRNKRSNLEHHHHHH | soluble |
| AQRVKDRPDGDTRRSELTMKLINKRGAVRERKLISYSIDMGKDKKDKKTIMFFLYPGDVKGTGFLTWDYDQIGKDDDKWLYLPAMKKTRRISGASAKKDYFMGSDFTYDDMGSRNVDEDTHKLLGEETFDGHKCWKLESTSKDQRDVFSKKIAWIRQDCLIPVRVEYYDRMNRLHRLLELSDIAQVDGFWMAQKMNMSNVQTGHRTVLEIKKPEFNRPIDESKFTVTSLEK | not soluble |
| MSTKPEKPIWMSQEDYDRQYGSITGDESSTVSKKDSKVTANAPGDGNGSLPVLQSSSILTSKVSDLPIEAESGFKIQKRRHERYDQEERLRKQRAQKLREEQLKRHEIEMTANRSINVDQIVREHYNERTIIANRAKRNLSPIIKLRNFNNAIKYMLIDKYTKPGDVVLELGCGKGGDLRKYGAAGISQFIGIDISNASIQEAHKRYRSMRNLDYQVVLITGDCFGESLGVAVEPFPDCRFPCDIVSTQFCLHYAFETEEKARRALLNVAKSLKIGGHFFGTIPDSEFIRYKLNKFPKEVEKPSWGNSIYKVTFENNSYQKNDYEFTSPYGQMYTYWLEDAIDNVPEYVVPFETLRSLADEYGLELVSQMPFNKFFVQEIPKWIERFSPKMREGLQRSDGRYGVEGDEKEAASYFYTMFAFRKVKQYIEPESVKPN | soluble |
| MSLHPVSISLSSYGADLVRSRGQASFLPLLAMAGAQRVELREELFAGPPDTEALTAAIQLQGLECVFSSPLELWREDGQLNPELEPTLRRAEACGAGWLKVSLGLLPEQPDLAALGRRLARHGLQLLVENDQTPQGGRIEVLERFFRLAERQQLDLAMTFDIGNWRWQEQAADEAALRLGRYVGYVHCKAVIRNRDGKLVAVPPSAADLQYWQRLLQHFPEGVARAIEYPLQGDDLLSLSRRHIAALARLGQPQEERQHG | soluble |
| MSRGDKMLKFEIKARDGAGRIGKLEVNGKKIETPAIMPVVNPKQMVVEPKELEKMGFEIIITNSYIIYKDEELRRKALELGIHRMLDYNGIIEVDSGSFQLMKYGSIEVSNREIIEFQHRIGVDIGTFLDIPTPPDAPREQAVKELEITLSRAREAEEIKEIPMNATIQGSTYTDLRRYAARRLSSMNFEIHPIGGVVPLLESYRFRDVVDIVISSKMALRPDRPVHLFGAGHPIVFALAVAMGVDLFDSASYALYAKDDRYMTPEGTKRLDELDYFPCSCPVCSKYTPQELREMPKEERTRLLALHNLWVIKEEIKRVKQAIKEGELWRLVDERARSHPKLYSAYKRLLEHYTFLEEFEPITKKSALFKISNESLRWPVVRRAKERAKSINERFGELVEHPIFGRVSRYLSLTYPFAQSEAEDDFKIEKPTKEDAIKYVMAIAEYQFGEGASRAFDDAKVELSKTGMPRQVKVNGKRLATVRADDGLLTLGIEGAKRLHRVLPYPRMRVVVNKEAEPFARKGKDVFAKFVIFADPGIRPYDEVLVVNENDELLATGQALLSGREMIVFQYGRAVKVRKGVE | soluble |
| MLSFVKELNFEINQKKYFIKIYLQPRIKYIKIKIINHQIVCLINHLKLINIAEEFIKNNKLKILKIYENDLKKIKYDEQSLDWIILLGIKFTTIKIKNNNFHCQFNFQKQIIYLYDQNQNLTNTKLLYQKILIYLAEIIFPQIIKNAQNITTLTVKKYVFGFYKSQWGVYNKIKHTIGLSYFLVHYDQDIINYVVIHELAHIKYQHHQKSFWDFVLKYCKNAKIYNNQLKFLEHHHHHH | soluble |
| MSLIYSGKFRIGVQDEAALQMLHDPEKLGPCLPGVSSFERNDDGYSCKVRLDVSSMGSSYLSKISGKLAFSYLDSENRTIHVQGKGRIAGSSISFDLFISVNGGELIWKIDVNYGILIKMMGEEKIRDVTQANIDRSVKCLSSVLCQEGHHHHHH | soluble |
| MRVLILGGTGNAAELAARVATIQGVDAITSLAGRTREPSVPLGDLRVGGFGGVAGLASYLQAMQIDLLIDATHPFASQISFNAADAAKEVGVPRLMLIRPPWEKGSGDRWMEVDNVEAAAASLQNQAHRVFLTVGRQELAAFAHLEEIWFLMRMIDPPVDDALVPPGMVLCDRGPFNLNNERQILIDRKIDTIVSKNSGGDATKPKIIAARELGVKVVMVNRPAIPPGEQVSDVEGALVWLLEKLHN | not soluble |
| MLICNDKSNPKTLLEEIMALRPWRKGPFEISQIKIDSEWDSSIKWDLVKNATPLKDKVVADVGCNNGYYLFKMLEHGPKSLVGFDPGVLVKKQFEFLAPFFDKEKKIIYESLGVEDLHEKYPNAFDVIFCLGVLYHRKSPLEALKALYHALKIKGELVLDTLIIDSPLDIALCPKKTYAKMKNVYFIPSVSALKGWCERVGFENFEILSVLKTTPKEQRKTDFILGQSLEDFLDKTDPSKTLEGYDAPLRGYFKMLKPSKR | not soluble |
| MTQKEISIIHPRPSSIVAALYTLRDLNVDVAILHGPPGCSFKHARLLEEDGIHVVTTGLDENGFVFGGHDRLVEVINKSIELFNPKILGVVGTCASMIIGEEMHDAVLEANPDIPVIEVEVHAGYHNNTRGVLFALESALDAGIIDRKEFERQEYLEHHHHHH | soluble |
| MGSDKIHHHHHHMDFFQSKFLYGKKQSQFGIFRMPRNTTNCPVVVTIHGGFWKAEYGLEEIVPLDEDLVRRGYATWNVEYRRIGENGGGWPGTFSDVIDAVNYLAFLKEDFPLDLSRVVILGHSAGGHLALWLASRWNTKQADQMENVLHTSIKAIISLAGVSNLEEMWRIESKGKTSNNVSSFLGGTPEEASDRYHLASPYELLPLHVRQILVHGGSDQEVPLDLTLGYYKKAIRLADDVGLISDSRSDHFDLIDPFSSIWLSSADSLKNIINS | not soluble |
